Results: publication PMC7464562

Target: SARS-CoV-2 S2 fragment (fusion fragment; postfusion S2 trimer, peak 2) (SARS-CoV-2)
Assay: cryo-EM structure

## SARS-CoV-2 S2 fragment (fusion fragment; postfusion S2 trimer, peak 2) (domain or fragment)
  stoichiometry N: 3
